Each block holds one binder with its values, some of them ahead of it.
Tests used:
[1] = target: T1, Clone C-193 (CARP), amino acids 21-302 (human, UniProt Q15327 21-302); test: yeast two-hybrid
T1 construct: range 21-302
Description: (§1) The new construct was selected directly in the yeast strain PNY200 for its ability to drive tryptophane synthesis (genotype of this strain: […] trp1-901 leu2-3,112 ura3-52 his3-200 ade2 gal4Δ gal80). In these yeast cells, the bait was produced as a C-terminal fusion protein with the DNA binding domain of the transcription factor Ga14 (amino acids 1 to 147). Prey libraries were transformed into the yeast strain BK100 (genotype of this strain: MATα trp1-901 leu2-3,112 ura3-52 his3-200 gal4Δ gal80 LYS2::GAL-HIS3 GAL2-ADE2 met2::GAL7-lacZ), and selected for the ability to drive leucine synthesis. In these yeast cells, each cDNA was expressed as a fusion protein with the transcription activation domain of the transcription factor Ga14 (amino acids 768 to 881) and a 9 amino acid hemagglutinin epitope tag. PNY200 cells (MATα mating type), expressing the bait, were then mated with BK100 cells (MATa mating type), expressing prey proteins from a prey library. The resulting diploid yeast cells expressing proteins interacting with the bait protein were selected for the ability to synthesize tryptophan, leucine, histidine, and adenine. DNA was prepared from each clone, transformed by electroporation into E. coli strain KC8 (Clontech KC8 electrocompetent cells, Catalog No. C2023-1), and the cells were selected on ampicillin-containing plates in the absence of either tryptophane (selection for the bait plasmid) or leucine (selection for the library plasmid). DNA for both plasmids was prepared and sequenced by the dideoxynucleotide chain termination method. The identity of the bait cDNA insert was confirmed and the cDNA insert from the prey library plasmid was identified using the BLAST program to search against public nucleotide and protein databases. Plasmids from the prey library were then individually transformed into yeast cells together with a plasmid driving the synthesis of lamin and 5 other test proteins, respectively, fused to the Ga14 DNA binding domain. Clones that gave a positive signal in the β-galactosidase assay were considered false-positives and discarded. […] Clones that gave a positive signal in the β-galactosidase assay were considered true positives.

[2] = target: T2, Beta-catenin, amino acids 579-782 (human, UniProt P35222 579-781); test: yeast two-hybrid
T2 construct: range 579-782
T2 sequence (looked up): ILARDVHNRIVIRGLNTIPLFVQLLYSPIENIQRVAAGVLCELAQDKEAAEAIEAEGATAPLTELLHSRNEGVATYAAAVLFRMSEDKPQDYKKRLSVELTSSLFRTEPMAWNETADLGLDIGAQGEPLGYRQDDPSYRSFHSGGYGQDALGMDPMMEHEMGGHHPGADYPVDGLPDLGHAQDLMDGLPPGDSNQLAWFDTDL
Description: as §1

[3] = target: T3, Alpha-SNAP, amino acids 36-241 (human, UniProt P54920 36-241); test: yeast two-hybrid
T3 construct: range 36-241
T3 sequence (looked up): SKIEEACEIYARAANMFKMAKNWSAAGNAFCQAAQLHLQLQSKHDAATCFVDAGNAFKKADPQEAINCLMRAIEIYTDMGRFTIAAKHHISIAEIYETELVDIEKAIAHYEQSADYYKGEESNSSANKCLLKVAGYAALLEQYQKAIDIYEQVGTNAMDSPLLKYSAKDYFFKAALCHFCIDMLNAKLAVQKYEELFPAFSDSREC
Description: as §1

[4] = target: T4, 14-3-3-Zeta, amino acids 1-200 (human, UniProt P63104 1-200); test: yeast two-hybrid; GLUT4 463-510 with 14-3-3-Zeta 1-200
T4 sequence: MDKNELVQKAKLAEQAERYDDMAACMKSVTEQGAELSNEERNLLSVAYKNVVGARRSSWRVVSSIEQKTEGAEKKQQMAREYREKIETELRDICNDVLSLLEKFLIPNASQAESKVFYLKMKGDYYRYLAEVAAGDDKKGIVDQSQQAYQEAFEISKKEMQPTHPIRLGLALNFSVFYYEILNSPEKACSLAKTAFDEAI
Description: The new construct was selected directly in the yeast strain PNY200 for its ability to drive tryptophane synthesis (genotype of this strain: MATα trp1-901 leu2-3,112 ura3-52 his3-200 ade2 gal4Δ gal80). In these yeast cells, the bait was produced as a C-terminal fusion protein with the DNA binding domain of the transcription factor Ga14 (amino acids 1 to 147). Prey libraries were transformed into the yeast strain BK100 (genotype of this strain: MATα trp1-901 leu2-3,112 ura3-52 his3-200 gal4Δ gal80 LYS2::GAL-HIS3 GAL2-ADE2 met2::GAL7-lacZ), and selected for the ability to drive leucine synthesis. In these yeast cells, each cDNA was expressed as a fusion protein with the transcription activation domain of the transcription factor Ga14 (amino acids 768 to 881) and a 9 amino acid hemagglutinin epitope tag. PNY200 cells (MATα mating type), expressing the bait, were then mated with BK100 cells (MATa mating type), expressing prey proteins from a prey library. The resulting diploid yeast cells expressing proteins interacting with the bait protein were selected for the ability to synthesize tryptophan, leucine, histidine, and adenine. […]

[5] = target: T5, Insulin-Regulated Membrane-Spanning Aminopeptidase (IRAP), amino acids 129-473 (human, UniProt Q9UIQ6 129-473); test: yeast two-hybrid
T5 construct: range 129-473; also called vp165; gp160
Description: as §1

[6] = target: T6, Tropomyosin 3, amino acids 171-286 (human, UniProt P06753 171-285); test: yeast two-hybrid
T6 construct: range 171-286
Description: as §1

[7] = target: T7, 14-3-3-Zeta, amino acids 79-246 (human, UniProt P63104 79-245); test: yeast two-hybrid
T7 sequence: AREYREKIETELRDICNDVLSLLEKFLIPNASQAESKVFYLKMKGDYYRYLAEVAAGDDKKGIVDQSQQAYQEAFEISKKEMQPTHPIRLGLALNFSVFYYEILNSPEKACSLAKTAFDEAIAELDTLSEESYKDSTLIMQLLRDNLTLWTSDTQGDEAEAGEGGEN
Description: as §1

[8] = target: T8, 14-3-3-Eta, amino acids 91-246 (human, UniProt Q04917 91-246); test: yeast two-hybrid
T8 construct: range 91-246
T8 sequence (looked up): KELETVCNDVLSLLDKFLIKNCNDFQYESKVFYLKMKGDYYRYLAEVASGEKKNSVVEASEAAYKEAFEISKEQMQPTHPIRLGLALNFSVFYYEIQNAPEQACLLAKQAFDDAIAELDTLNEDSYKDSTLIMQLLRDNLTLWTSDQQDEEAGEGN
Description: as §1

[9] = target: T9, Myosin Heavy Chain (Swiss Protein P13533), amino acids 1589-1909 (human, UniProt P13533 1589-1909); test: yeast two-hybrid
T9 construct: range 1589-1909; also called cardiac muscle myosin heavy chain; MYSA
Description: as §1

[10] = target: T10, NuMA1, amino acids 185-361 (human, UniProt Q14980 185-361); test: yeast two-hybrid
T10 construct: range 185-361; also called nuclear mitotic apparatus protein NuMA1
T10 sequence (looked up): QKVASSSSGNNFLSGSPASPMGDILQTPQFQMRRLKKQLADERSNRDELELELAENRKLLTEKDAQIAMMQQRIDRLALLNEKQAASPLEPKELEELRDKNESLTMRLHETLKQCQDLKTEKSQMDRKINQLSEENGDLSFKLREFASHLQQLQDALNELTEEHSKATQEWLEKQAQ
Description: as §1

T5 sequence (Q9UIQ6 129-473 limits assumed): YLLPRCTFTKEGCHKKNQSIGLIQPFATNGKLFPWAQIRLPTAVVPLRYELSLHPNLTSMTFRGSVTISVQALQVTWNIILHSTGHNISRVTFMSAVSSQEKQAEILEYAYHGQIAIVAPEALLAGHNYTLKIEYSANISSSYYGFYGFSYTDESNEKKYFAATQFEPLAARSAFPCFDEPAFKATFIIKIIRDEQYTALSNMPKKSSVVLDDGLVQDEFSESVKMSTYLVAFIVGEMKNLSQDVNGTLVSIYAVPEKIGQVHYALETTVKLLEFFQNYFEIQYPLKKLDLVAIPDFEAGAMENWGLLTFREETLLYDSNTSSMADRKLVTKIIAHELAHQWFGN
T6 sequence (P06753 171-285 limits assumed): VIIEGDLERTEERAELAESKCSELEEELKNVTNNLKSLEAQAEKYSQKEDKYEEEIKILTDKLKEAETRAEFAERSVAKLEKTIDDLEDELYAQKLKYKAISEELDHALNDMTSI
T1 sequence (Q15327 21-302 limits assumed): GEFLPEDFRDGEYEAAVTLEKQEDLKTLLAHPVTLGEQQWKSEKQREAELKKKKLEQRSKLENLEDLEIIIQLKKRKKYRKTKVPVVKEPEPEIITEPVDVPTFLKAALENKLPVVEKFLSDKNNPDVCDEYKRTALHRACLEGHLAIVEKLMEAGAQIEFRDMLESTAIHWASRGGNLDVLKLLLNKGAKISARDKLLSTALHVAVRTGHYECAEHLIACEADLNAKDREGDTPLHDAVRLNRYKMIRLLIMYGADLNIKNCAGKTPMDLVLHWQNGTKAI
T9 sequence (P13533 1589-1909, one chain of several): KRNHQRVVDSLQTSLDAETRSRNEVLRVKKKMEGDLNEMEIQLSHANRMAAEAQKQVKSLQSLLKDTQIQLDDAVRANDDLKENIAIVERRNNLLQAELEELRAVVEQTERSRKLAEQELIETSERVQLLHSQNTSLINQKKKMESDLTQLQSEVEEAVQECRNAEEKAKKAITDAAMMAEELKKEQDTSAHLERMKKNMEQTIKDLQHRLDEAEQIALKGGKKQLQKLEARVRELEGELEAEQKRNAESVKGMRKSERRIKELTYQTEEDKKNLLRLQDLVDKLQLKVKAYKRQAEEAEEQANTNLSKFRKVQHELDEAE

B1: 14-3-3 Beta, amino acids 97-236 (other, human, UniProt P31946 97-236, looked up)
chain: NDVLELLDKYLIPNATQPESKVFYLKMKGDYFRYLSEVASGDNKQTTVSNSQQAYQEAFEISKKEMQPTHPIRLGLALNFSVFYYEILNSPEKACSLAKTAFDEAIAELDTLNEESYKDSTLIMQLLRDNLTLWTSENQG
notes: range 97-236
- binding result [5]: binds

B2: Glut4, amino acids 434-510 (other, human, UniProt P14672 434-509, looked up)
chain: IGMGFQYVAEAMGPYVFLLFAVLLLGFFIFTFLRVPETRGRTFDQISAAFHRTPSLLEQEVKPSTELEYLGPDEND
notes: range 434-510; also called Glucose Transporter 4
- binding result [6]: binds

B3: PI-3K85, amino acids 1-50 (other, human, UniProt P27986 1-50, looked up)
chain: MSAEGYQYRALYDYKKEREEDIDLHLGDILTVNKGSLVALGFSDGQEARP
notes: range 1-50; also called p85 regulatory subunit of PI-3 kinase; PI-3 kinase p85
- binding result [7]: binds
- binding result [8]: binds

Binder: TYFKVPETKGRTFDEIASGFRQGGASQSDKTPEELFHPLGADSQV (other, human, UniProt P11166 448-492, looked up, range 448-493; also called GLUT1; Glut1) [Glucose Transporter 1, amino acids 448-493]
- binding result [9]: binds

Next, values leading:

- binding result [1]: binds
- binding result [2]: binds
- binding result [3]: binds
- binding result [4]: binds
Binder: FTFLRVPETRGRTFDQISAAFHRTPSLLEQEVKPSTELEYLGPDEND (other, human, UniProt P14672 463-509, looked up, range 463-510; also called GLUT4; Glut4) [Glucose Transporter 4, amino acids 463-510]

- binding result [10]: binds
B4: Akt kinase 1 (Akt1), amino acids 1-118 (enzyme, human, UniProt P31749 1-118, looked up)
chain: MSDVAIVKEGWLHKRGEYIKTWRPRYFLLKNDGTFIGYKERPQDVDQREAPLNNFSVAQCQLMKTERPRPNTFIIRCLQWTTVIERTFHVETPEEREEWTTAIQTVADGLKKQEEEEM
notes: range 1-118
